Measurements: article PMC6168280 (The Journal of Cell Biology, 2018)

B1: S. cerevisiae Vps1 G436D (natural protein)
chain: MDEHLISTINKLQDALAPLGGGSQSPIDLPQITVVGSQSSGKSSVLENIVGRDFLPRGTGIVTRRPLVLQLINRRPKKSEHAKVNQTANELIDLNINDDDKKKDESGKHQNEGQSEDNKEEWGEFLHLPGKKFYNFDEIRKEIVKETDKVTGANSGISSVPINLRIYSPHVLTLTLVDLPGLTKVPVGDQPPDIERQIKDMLLKYISKPNAIILSVNAANTDLANSDGLKLAREVDPEGTRTIGVLTKVDLMDQGTDVIDILAGRVIPLRYGYIPVINRGQKDIEHKKTIREALENERKFFENHPSYSSKAHYCGTPYLAKKLNSILLHHIRQTLPEIKAKIEATLKKYQNELINLGPETMDSASSVVLSMITDFSNEYAGILDGEAKELSSQELSGGARISYVFHETFKNGVDSLDPFDQIKDSDIRTIMYNSSDSAPSLFVGTEAFEVLVKQQIRRFEEPSLRLVTLVFDELVRMLKQIISQPKYSRYPALREAISNQFIQFLKDATIPTNEFVVDIIKAEQTYINTAHPDLLKGSQAMVMVEEKLHPRQVAVDPKTGKPLPTQPSSSKAPVMEEKSGFFGGFFSTKNKKKLAALESPPPVLKATGQMTERETMETEVIKLLISSYFSIVKRTIADIIPKALMLKLIVKSKTDIQKVLLEKLYGKQDIEELTKENDITIQRRKECKKMVEILRNASQIVSSV

Key:
[1] = target: C. thermophilum Vps1 GG (minimal GTPase-BSE fusion) (C. thermophilum); test: SEC-MALS
SEC-MALS = target: the molecule itself; test: SEC-MALS

| Molecule | stoichiometry N [1] | stoichiometry N (SEC-MALS) |
| --- | --- | --- |
| C. thermophilum Vps1 GG (minimal GTPase-BSE fusion) (domain or fragment) | 2 | – |
| B1 | – | 2 |
